Experimental data as given in paper PMC6393296, “Intrinsically disordered regions regulate both catalytic and non-catalytic activities of the MutLα mismatch repair complex”.

Tests used:
[1] = biological target: Mlh1 (WT, FLAG);Pms1 (WT) (Saccharomyces cerevisiae (expressed in …, UniProt P38920;P14242 1-769;1-873, |)); assay: filter binding; no nucleotide; 2 mM Mg2+; Filter binding: 20 mM Tris-HCl pH 7.5, 20 mM NaCl (25 mM in legends), 0.01 mM EDTA, 2 mM MgCl2, 40 ug/ml BSA, 0.1 mM DTT, 15 nM DNA, +/-1 mM ATP, 30 C, 10 min; settings: protein: recombinant;recombinant; tags: FLAG inserted at position 499;; copies: 1;1; label: 5'-32P on AO3142; blunt
[2] = biological target: Mlh1 del348-373 (FLAG);Pms1 del584-634 (DLDnull subunit) (Saccharomyces cerevisiae (expressed in …, UniProt P38920;P14242 1-769;1-873, del348-373|del584-634)); assay: filter binding; no nucleotide; 2 mM Mg2+; similar to WT; Filter binding: 20 mM Tris-HCl pH 7.5, 20 mM NaCl (25 mM in legends), 0.01 mM EDTA, 2 mM MgCl2, 40 ug/ml BSA, 0.1 mM DTT, 15 nM DNA, +/-1 mM ATP, 30 C, 10 min; settings: protein: recombinant;recombinant; tags: FLAG inserted at position equivalent to 499;; copies: 1;1; label: 5'-32P on AO3142; blunt
[3] = biological target: Mlh1 del348-373 (FLAG);Pms1 del438-487 (DLDMMR subunit) (Saccharomyces cerevisiae (expressed in …, UniProt P38920;P14242 1-769;1-873, del348-373|del438-487)); assay: as above; settings: protein: recombinant;recombinant; tags: FLAG inserted at position equivalent to 499;; copies: 1;1; label: 5'-32P on AO3142; blunt

Measured: binding result

Sequence of Mlh1 (WT, FLAG);Pms1 (WT) (Saccharomyces cerevisiae (P38920 whole entry, chain 1 of 2): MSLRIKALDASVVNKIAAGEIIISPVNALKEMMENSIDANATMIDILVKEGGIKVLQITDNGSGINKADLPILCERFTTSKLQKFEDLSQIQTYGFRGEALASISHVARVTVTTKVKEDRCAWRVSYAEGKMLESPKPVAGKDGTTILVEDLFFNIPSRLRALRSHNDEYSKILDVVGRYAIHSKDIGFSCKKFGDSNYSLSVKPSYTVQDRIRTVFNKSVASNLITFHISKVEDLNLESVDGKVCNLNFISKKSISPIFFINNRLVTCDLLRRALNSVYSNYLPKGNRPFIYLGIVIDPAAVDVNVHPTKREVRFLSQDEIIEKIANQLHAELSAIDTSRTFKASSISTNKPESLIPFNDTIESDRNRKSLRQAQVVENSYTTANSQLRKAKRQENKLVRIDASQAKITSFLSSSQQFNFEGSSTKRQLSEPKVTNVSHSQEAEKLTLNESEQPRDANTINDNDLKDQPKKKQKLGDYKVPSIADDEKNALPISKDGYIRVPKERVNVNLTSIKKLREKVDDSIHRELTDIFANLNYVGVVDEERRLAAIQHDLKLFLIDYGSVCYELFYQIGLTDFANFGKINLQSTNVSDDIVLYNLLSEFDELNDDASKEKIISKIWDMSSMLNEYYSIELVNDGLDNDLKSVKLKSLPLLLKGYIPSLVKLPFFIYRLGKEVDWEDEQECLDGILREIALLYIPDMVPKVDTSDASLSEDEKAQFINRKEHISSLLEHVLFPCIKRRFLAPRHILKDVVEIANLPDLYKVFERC
Sequence of Mlh1 (WT, FLAG);Pms1 (WT) (Saccharomyces cerevisiae (P14242 whole entry, chain 2 of 2): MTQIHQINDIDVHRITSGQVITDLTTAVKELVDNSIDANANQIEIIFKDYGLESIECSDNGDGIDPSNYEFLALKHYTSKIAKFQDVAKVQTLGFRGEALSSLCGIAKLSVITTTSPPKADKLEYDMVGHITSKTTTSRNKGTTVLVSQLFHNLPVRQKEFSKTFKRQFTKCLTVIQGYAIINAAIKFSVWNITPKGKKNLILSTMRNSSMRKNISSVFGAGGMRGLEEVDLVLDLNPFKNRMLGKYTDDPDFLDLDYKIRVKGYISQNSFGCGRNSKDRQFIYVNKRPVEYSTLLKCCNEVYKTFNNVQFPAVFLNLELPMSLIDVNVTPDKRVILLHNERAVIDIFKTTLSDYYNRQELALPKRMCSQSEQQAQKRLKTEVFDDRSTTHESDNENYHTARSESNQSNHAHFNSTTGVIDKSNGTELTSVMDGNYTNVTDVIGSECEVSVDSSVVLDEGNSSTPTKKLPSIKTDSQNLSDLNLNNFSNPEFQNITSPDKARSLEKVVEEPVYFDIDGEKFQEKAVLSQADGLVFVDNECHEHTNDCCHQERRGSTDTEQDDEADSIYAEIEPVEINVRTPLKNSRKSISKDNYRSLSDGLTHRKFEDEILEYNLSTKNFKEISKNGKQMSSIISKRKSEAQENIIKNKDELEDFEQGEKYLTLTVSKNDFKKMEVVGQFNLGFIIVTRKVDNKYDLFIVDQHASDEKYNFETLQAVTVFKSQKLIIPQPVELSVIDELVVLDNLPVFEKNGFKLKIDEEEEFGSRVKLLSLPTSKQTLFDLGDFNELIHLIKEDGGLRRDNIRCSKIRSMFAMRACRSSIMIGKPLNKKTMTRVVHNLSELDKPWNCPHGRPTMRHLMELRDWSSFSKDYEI
Sequence of Mlh1 del348-373 (FLAG);Pms1 del438-487 (DLDMMR subunit) (Saccharomyces cerevisiae (P38920 other isoform, or with tags, fused parts or gaps del348-373|del438-487, chain 1 of 2): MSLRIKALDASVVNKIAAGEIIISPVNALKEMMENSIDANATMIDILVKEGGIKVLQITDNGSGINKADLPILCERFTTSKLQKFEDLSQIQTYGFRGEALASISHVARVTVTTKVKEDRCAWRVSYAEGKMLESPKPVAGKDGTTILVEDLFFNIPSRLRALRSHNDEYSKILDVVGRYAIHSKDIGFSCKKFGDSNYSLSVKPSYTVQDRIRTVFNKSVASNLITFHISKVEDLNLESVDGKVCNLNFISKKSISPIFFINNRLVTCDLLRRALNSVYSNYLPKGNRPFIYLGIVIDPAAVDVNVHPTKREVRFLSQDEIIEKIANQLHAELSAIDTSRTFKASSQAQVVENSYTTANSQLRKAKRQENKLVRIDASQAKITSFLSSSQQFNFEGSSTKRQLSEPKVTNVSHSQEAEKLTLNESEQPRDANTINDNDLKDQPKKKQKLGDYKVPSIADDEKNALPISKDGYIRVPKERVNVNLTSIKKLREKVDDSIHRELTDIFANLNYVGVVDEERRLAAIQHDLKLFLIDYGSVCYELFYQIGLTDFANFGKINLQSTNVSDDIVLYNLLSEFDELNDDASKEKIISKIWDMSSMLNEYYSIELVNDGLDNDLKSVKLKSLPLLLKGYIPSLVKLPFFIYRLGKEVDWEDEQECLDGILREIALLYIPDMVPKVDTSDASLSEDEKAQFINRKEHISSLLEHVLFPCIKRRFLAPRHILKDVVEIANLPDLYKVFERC
Sequence of Mlh1 del348-373 (FLAG);Pms1 del438-487 (DLDMMR subunit) (Saccharomyces cerevisiae (P14242 other isoform, or with tags, fused parts or gaps del348-373|del438-487, chain 2 of 2): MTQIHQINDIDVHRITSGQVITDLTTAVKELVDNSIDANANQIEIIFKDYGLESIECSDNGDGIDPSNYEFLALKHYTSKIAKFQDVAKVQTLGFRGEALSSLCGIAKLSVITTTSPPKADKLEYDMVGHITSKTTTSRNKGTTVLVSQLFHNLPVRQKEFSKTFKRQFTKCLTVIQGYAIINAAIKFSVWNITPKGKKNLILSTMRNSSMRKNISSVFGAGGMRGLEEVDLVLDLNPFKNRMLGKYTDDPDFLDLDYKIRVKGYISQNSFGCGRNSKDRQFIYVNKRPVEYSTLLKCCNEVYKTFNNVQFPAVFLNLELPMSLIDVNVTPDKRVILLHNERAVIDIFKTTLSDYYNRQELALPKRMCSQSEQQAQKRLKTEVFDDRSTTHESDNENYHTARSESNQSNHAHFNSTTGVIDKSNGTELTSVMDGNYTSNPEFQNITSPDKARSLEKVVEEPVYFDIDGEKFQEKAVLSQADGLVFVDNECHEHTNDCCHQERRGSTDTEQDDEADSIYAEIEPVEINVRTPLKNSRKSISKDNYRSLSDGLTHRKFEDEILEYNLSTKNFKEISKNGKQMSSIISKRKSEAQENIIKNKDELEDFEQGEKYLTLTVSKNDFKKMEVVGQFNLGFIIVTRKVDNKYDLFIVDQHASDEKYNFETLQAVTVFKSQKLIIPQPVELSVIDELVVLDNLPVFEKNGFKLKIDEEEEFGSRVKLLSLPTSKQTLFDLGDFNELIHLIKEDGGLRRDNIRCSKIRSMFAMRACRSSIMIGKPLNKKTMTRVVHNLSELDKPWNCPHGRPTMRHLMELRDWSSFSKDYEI
Sequence of Mlh1 del348-373 (FLAG);Pms1 del584-634 (DLDnull subunit) (Saccharomyces cerevisiae (P38920 other isoform, or with tags, fused parts or gaps del348-373|del584-634, chain 1 of 2): as the sequence (P38920 other isoform, or with tags, fused parts or gaps del348-373|del438-487, chain 1 of 2) above
Sequence of Mlh1 del348-373 (FLAG);Pms1 del584-634 (DLDnull subunit) (Saccharomyces cerevisiae (P14242 other isoform, or with tags, fused parts or gaps del348-373|del584-634, chain 2 of 2): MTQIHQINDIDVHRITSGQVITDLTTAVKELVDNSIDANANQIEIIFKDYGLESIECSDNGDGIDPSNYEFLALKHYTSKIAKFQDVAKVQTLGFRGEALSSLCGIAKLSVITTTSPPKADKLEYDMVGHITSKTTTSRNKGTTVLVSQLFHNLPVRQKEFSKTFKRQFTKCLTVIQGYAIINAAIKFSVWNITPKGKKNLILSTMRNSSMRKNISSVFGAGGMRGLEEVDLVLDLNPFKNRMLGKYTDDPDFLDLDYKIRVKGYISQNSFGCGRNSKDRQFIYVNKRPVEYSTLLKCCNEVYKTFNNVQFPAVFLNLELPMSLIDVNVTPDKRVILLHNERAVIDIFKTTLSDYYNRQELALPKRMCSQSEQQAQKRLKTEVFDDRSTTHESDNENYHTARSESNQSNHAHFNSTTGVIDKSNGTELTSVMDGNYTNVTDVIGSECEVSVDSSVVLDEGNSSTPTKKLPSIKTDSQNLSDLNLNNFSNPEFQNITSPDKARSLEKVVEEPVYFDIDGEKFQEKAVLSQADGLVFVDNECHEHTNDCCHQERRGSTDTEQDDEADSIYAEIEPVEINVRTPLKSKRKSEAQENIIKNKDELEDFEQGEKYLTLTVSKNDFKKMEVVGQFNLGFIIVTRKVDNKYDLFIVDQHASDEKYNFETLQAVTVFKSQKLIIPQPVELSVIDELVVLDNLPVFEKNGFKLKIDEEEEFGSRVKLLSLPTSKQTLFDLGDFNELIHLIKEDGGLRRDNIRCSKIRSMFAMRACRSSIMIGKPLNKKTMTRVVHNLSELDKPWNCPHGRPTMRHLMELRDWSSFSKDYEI

B1: 49-bp homoduplex AO3142/AO3144 (dsDNA)
DNA 1: GGGTCAACGTGGGCAAAGATGTCCTAGCAAGTCAGAATTCGGTAGCGTG
DNA 2: CACGCTACCGAATTCTGACTTGCTAGGACATCTTTGCCCACGTTGACCC
binds: all assays above
